Earlier results as cited in US10906951B2, “Modified natural killer cells and natural killer cell lines having increased cytotoxicity” (ONK THERAPEUTICS LIMITED, priority 2015, dated 2021).
Substitutions are numbered along the chain they refer to. Numbers in names are those of the source.

B1: D269H: TRAIL variant, Van der Sloot 2006 (protein, UniProt P50591 1-281, looked up, variant D269H)
Tumor necrosis factor ligand …: MAMMEVQGGPSLGQTCVLIVIFTVLLQSLCVAVTYVYFTNELKQMQDKYSKSGIACFLKEDDSYWDPNDEESMNSPCWQVKWQLRQLVRKMILRTSEETISTVQEKQQNISPLVRERGPQRVAAHITGTRGRSNTLSSPNSKNEKALGRKINSWESSRSGHSFLSNLHLRNGELVIHEKGFYYIYSQTYFRFQEEIKENTKNDKQMVQYIYKYTSYPDPILLMKSARNSCWSKDAEYGLYSIYQGGIFELKENDRIFVSVTNEHLIDMHHEASFFGAFLVG
B2: T214R/D269H: TRAIL variant, Van der Sloot 2006 (protein, UniProt P50591 1-281, looked up, variant T214R D269H)
Tumor necrosis factor ligand …: B1 Tumor necrosis factor ligand … with T214R
B3: T214R/E195R: TRAIL variant, Van der Sloot 2006 (protein, UniProt P50591 1-281, looked up, variant T214R E195R)
Tumor necrosis factor ligand …: B1 Tumor necrosis factor ligand … with E195R, T214R, H269D
B4: E195R: TRAIL variant, Van der Sloot 2006 (protein, UniProt P50591 1-281, looked up, variant E195R)
Tumor necrosis factor ligand …: B1 Tumor necrosis factor ligand … with E195R, H269D
B5: T214R: TRAIL variant, Van der Sloot 2006 (protein, UniProt P50591 1-281, looked up, variant T214R)
Tumor necrosis factor ligand …: B1 Tumor necrosis factor ligand … with T214R, H269D
B6: G131K: TRAIL DR4 variant, WO 2009/066174 (protein, UniProt P50591 1-281, looked up, variant G131K)
Tumor necrosis factor ligand …: B1 Tumor necrosis factor ligand … with G131K, H269D
B7: G131R: TRAIL DR4 variant, WO 2009/066174 (protein, UniProt P50591 1-281, looked up, variant G131R)
Tumor necrosis factor ligand …: B1 Tumor necrosis factor ligand … with G131R, H269D
B8: R149M: TRAIL DR4 variant, WO 2009/066174 (protein, UniProt P50591 1-281, looked up, variant R149M)
Tumor necrosis factor ligand …: B1 Tumor necrosis factor ligand … with R149M, H269D
B9: K204L: TRAIL DR4 variant, WO 2009/066174 (protein, UniProt P50591 1-281, looked up, variant K204L)
Tumor necrosis factor ligand …: B1 Tumor necrosis factor ligand … with K204L, H269D
B10: Q193H: TRAIL DR4 variant, WO 2009/066174 (protein, UniProt P50591 1-281, looked up, variant Q193H)
Tumor necrosis factor ligand …: B1 Tumor necrosis factor ligand … with Q193H, H269D
B11: S159R: TRAIL DR4 variant, WO 2009/066174 (protein, UniProt P50591 1-281, looked up, variant S159R)
Tumor necrosis factor ligand …: B1 Tumor necrosis factor ligand … with S159R, H269D
B12: G131R/N199R/K201H: TRAIL DR4 variant, WO 2009/066174 (protein, UniProt P50591 1-281, looked up, variant G131R N199R K201H)
Tumor necrosis factor ligand …: B1 Tumor necrosis factor ligand … with G131R, N199R, K201H, H269D
B13: S215K: TRAIL DR4 variant, WO 2009/066174 (protein, UniProt P50591 1-281, looked up, variant S215K)
Tumor necrosis factor ligand …: B1 Tumor necrosis factor ligand … with S215K, H269D
B14: G131R/R149I/S159R/S215D: 4C9, a DR4-specific TRAIL variant; DNA sequence SEQ ID NO: 14 (protein, listed as Homo sapiens)
chain: B1 Tumor necrosis factor ligand … with G131R, R149I, S159R, S215D, H269D
B15: Y189Q/R191K/Q193R/H264R/I266L/D267Q: TRAIL DR4 variant, MacFarlane 2005 (protein, UniProt P50591 1-281, looked up, variant Y189Q R191K Q193R H264R I266L D267Q)
Tumor necrosis factor ligand …: B1 Tumor necrosis factor ligand … with Y189Q, R191K, Q193R, H264R, I266L, D267Q, H269D
B16: K212R: TRAIL DR4 variant, WO 2009/066174 (protein, UniProt P50591 1-281, looked up, variant K212R)
Tumor necrosis factor ligand …: B1 Tumor necrosis factor ligand … with K212R, H269D
B17: K204E: TRAIL DR4 variant, WO 2009/066174 (protein, UniProt P50591 1-281, looked up, variant K204E)
Tumor necrosis factor ligand …: B1 Tumor necrosis factor ligand … with K204E, H269D
B18: K251E: TRAIL DR4 variant, WO 2009/066174 (protein, UniProt P50591 1-281, looked up, variant K251E)
Tumor necrosis factor ligand …: B1 Tumor necrosis factor ligand … with K251E, H269D
B19: K251D: TRAIL DR4 variant, WO 2009/066174 (protein, UniProt P50591 1-281, looked up, variant K251D)
Tumor necrosis factor ligand …: B1 Tumor necrosis factor ligand … with K251D, H269D
B20: N199H/K201R: TRAIL DR4 variant, WO 2009/066174 (protein, UniProt P50591 1-281, looked up, variant N199H K201R)
Tumor necrosis factor ligand …: B1 Tumor necrosis factor ligand … with N199H, K201R, H269D
B21: K201H: TRAIL DR4 variant, WO 2009/066174 (protein, UniProt P50591 1-281, looked up, variant K201H)
Tumor necrosis factor ligand …: B1 Tumor necrosis factor ligand … with K201H, H269D
B22: R149I: TRAIL DR4 variant, WO 2009/066174 (protein, UniProt P50591 1-281, looked up, variant R149I)
Tumor necrosis factor ligand …: B1 Tumor necrosis factor ligand … with R149I, H269D
B23: S215D: TRAIL DR4 variant, WO 2009/066174 (protein, UniProt P50591 1-281, looked up, variant S215D)
Tumor necrosis factor ligand …: B1 Tumor necrosis factor ligand … with S215D, H269D
B24: K204D: TRAIL DR4 variant, WO 2009/066174 (protein, UniProt P50591 1-281, looked up, variant K204D)
Tumor necrosis factor ligand …: B1 Tumor necrosis factor ligand … with K204D, H269D
B25: D218H: TRAIL DR4 variant, WO 2009/066174 (protein, UniProt P50591 1-281, looked up, variant D218H)
Tumor necrosis factor ligand …: B1 Tumor necrosis factor ligand … with D218H, H269D
B26: K201R: TRAIL DR4 variant, WO 2009/066174 (protein, UniProt P50591 1-281, looked up, variant K201R)
Tumor necrosis factor ligand …: B1 Tumor necrosis factor ligand … with K201R, H269D
B27: N199R/K201H: TRAIL DR4 variant, WO 2009/066174 (protein, UniProt P50591 1-281, looked up, variant N199R K201H)
Tumor necrosis factor ligand …: B1 Tumor necrosis factor ligand … with N199R, K201H, H269D
B28: R149N: TRAIL DR4 variant, WO 2009/066174 (protein, UniProt P50591 1-281, looked up, variant R149N)
Tumor necrosis factor ligand …: B1 Tumor necrosis factor ligand … with R149N, H269D
B29: S215H: TRAIL DR4 variant, WO 2009/066174 (protein, UniProt P50591 1-281, looked up, variant S215H)
Tumor necrosis factor ligand …: B1 Tumor necrosis factor ligand … with S215H, H269D
B30: G131R/D218H: TRAIL DR4 variant, WO 2009/066174 (protein, UniProt P50591 1-281, looked up, variant G131R D218H)
Tumor necrosis factor ligand …: B1 Tumor necrosis factor ligand … with G131R, D218H, H269D
B31: R149K: TRAIL DR4 variant, WO 2009/066174 (protein, UniProt P50591 1-281, looked up, variant R149K)
Tumor necrosis factor ligand …: B1 Tumor necrosis factor ligand … with R149K, H269D
B32: S215E: TRAIL DR4 variant, WO 2009/066174 (protein, UniProt P50591 1-281, looked up, variant S215E)
Tumor necrosis factor ligand …: B1 Tumor necrosis factor ligand … with S215E, H269D
B33: G131R/N199R/K201H/R149I/S159R/S215D: TRAIL DR4 variant, WO 2009/066174 (protein, UniProt P50591 1-281, looked up, variant G131R N199R K201H R149I S159R S215D)
Tumor necrosis factor ligand …: B1 Tumor necrosis factor ligand … with G131R, R149I, S159R, N199R, K201H, S215D, H269D
B34: K251Q: TRAIL DR4 variant, WO 2009/066174 (protein, UniProt P50591 1-281, looked up, variant K251Q)
Tumor necrosis factor ligand …: B1 Tumor necrosis factor ligand … with K251Q, H269D
B35: K204Y: TRAIL DR4 variant, WO 2009/066174 (protein, UniProt P50591 1-281, looked up, variant K204Y)
Tumor necrosis factor ligand …: B1 Tumor necrosis factor ligand … with K204Y, H269D
B36: N199R: TRAIL DR4 variant, WO 2009/066174 (protein, UniProt P50591 1-281, looked up, variant N199R)
Tumor necrosis factor ligand …: B1 Tumor necrosis factor ligand … with N199R, H269D

Molecular target: DR5 (Homo sapiens, UniProt O14763)
Details: in words; known from WO 2009/077857, Van der Sloot 2006, MacFarlane 2005, WO 01/00832; cited from earlier work
For B1, the “affinity for DR5” value is given as “increased affinity for DR5”.
For B2, the “affinity for DR5” value is listed as “increased affinity for DR5”.
In the case of B3, the “affinity for DR5” value is given as “increased affinity for DR5”.
In the case of B4, the “affinity for DR5” value is listed as “increased affinity for DR5”.
For B5, the “affinity for DR5” value is given as “increased affinity for DR5”.

Molecular target: DR4 (Homo sapiens, UniProt O00220)
Details: in words; known from WO 2009/066174, MacFarlane 2005; cited from earlier work
In the case of B6, the “affinity for DR4” value is given as “increased affinity for DR4”.
In the case of B7, the “affinity for DR4” value is given as “increased affinity for DR4”.
In the case of B8, the “affinity for DR4” value is given as “increased affinity for DR4”.
For B9, the “affinity for DR4” value is given as “increased affinity for DR4”.
For B10, the “affinity for DR4” value is listed as “increased affinity for DR4”.
In the case of B11, the “affinity for DR4” value is listed as “increased affinity for DR4”.
In the case of B12, the “affinity for DR4” value is given as “increased affinity for DR4”.
In the case of B13, the “affinity for DR4” value is listed as “increased affinity for DR4”.
For B14, the “affinity for DR4” value is listed as “increased affinity for DR4”.
For B15, the “affinity for DR4” value is given as “DR4 variants”.
For B16, the “affinity for DR4” value is listed as “increased affinity for DR4”.
In the case of B17, the “affinity for DR4” value is listed as “increased affinity for DR4”.
In the case of B18, the “affinity for DR4” value is given as “increased affinity for DR4”.
For B19, the “affinity for DR4” value is listed as “increased affinity for DR4”.
For B20, the “affinity for DR4” value is listed as “increased affinity for DR4”.
In the case of B21, the “affinity for DR4” value is listed as “increased affinity for DR4”.
For B22, the “affinity for DR4” value is given as “increased affinity for DR4”.
In the case of B23, the “affinity for DR4” value is listed as “increased affinity for DR4”.
In the case of B24, the “affinity for DR4” value is given as “increased affinity for DR4”.
For B25, the “affinity for DR4” value is given as “increased affinity for DR4”.
For B26, the “affinity for DR4” value is listed as “increased affinity for DR4”.
For B27, the “affinity for DR4” value is given as “increased affinity for DR4”.
In the case of B28, the “affinity for DR4” value is listed as “increased affinity for DR4”.
In the case of B29, the “affinity for DR4” value is listed as “increased affinity for DR4”.
For B30, the “affinity for DR4” value is given as “increased affinity for DR4”.
For B31, the “affinity for DR4” value is listed as “increased affinity for DR4”.
For B32, the “affinity for DR4” value is given as “increased affinity for DR4”.
For B33, the “affinity for DR4” value is given as “increased affinity for DR4”.
For B34, the “affinity for DR4” value is listed as “increased affinity for DR4”.
For B35, the “affinity for DR4” value is listed as “increased affinity for DR4”.
For B36, the “affinity for DR4” value is given as “increased affinity for DR4”.
